Experimental data from patent US10772928B2, “Modulation and detection of a neuronal alternative splicing regulatory network for treatment and diagnosis of neurological disorders” (The Governing Council of the University of Toronto, priority 2014, dated 2020).

T1: nSR100 (Mus musculus, UniProt Q8BKA3)
T1 construct: host or cells: mouse N2A cells
T1 sequence (Q8BKA3 1-608): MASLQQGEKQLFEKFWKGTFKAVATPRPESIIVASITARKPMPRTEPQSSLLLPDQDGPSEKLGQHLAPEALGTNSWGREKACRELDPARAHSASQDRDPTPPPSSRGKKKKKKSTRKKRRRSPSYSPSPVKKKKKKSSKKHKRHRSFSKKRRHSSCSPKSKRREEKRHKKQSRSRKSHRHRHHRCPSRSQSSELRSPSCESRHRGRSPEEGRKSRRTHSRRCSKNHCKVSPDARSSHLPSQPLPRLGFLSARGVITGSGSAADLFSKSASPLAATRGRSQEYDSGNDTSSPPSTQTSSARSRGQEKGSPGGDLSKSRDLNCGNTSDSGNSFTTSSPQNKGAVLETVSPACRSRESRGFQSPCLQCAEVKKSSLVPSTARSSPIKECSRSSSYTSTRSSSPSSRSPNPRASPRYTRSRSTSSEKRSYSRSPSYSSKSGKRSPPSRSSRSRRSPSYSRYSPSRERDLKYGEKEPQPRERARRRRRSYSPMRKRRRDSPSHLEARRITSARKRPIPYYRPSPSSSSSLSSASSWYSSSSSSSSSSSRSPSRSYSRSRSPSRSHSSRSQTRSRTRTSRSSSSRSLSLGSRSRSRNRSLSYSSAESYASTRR

B1: Plk1 (protein, UniProt Q07832 1-603, looked up)
Serine/threonine-protein …: MNAAAKAGKLARAPADLGKGGVPGDAVPGAPVAAPLAKEIPEVLVDPRSRRQYVRGRFLGKGGFAKCFEISDADTKEVFAGKIVPKSLLLKPHQKEKMSMEISIHRSLAHQHVVGFHDFFEDSDFVFVVLELCRRRSLLELHKRRKALTEPEARYYLRQIVLGCQYLHRNQVIHRDLKLGNLFLNEDLEVKIGDFGLATKVEYEGERKKTLCGTPNYIAPEVLSKKGHSFEVDVWSIGCIMYTLLVGKPPFETSCLKETYLRIKKNEYSIPKHINPVAASLIQKMLQTDPTARPTIHELLNDEFFTSGYIPARLPITCLTIPPRFSIAPSSLDPSSRKPLKVLNKGVENPLPDRPREKEEPVVRETNEAIECHLSDLLQQLTSVNASKPSERGLVRQEEAEDPACIPIFWVSKWVDYSDKYGLGYQLCDNSVGVLFNDSTRLILYNDGDSLQYIERDGTESYLTVSSHPNSLMKKITLLNYFRNYMSEHLLKAGANITPREGDELARLPYLRTWFRTRSAIILHLSNGTVQINFFQDHTKLILCPLMAAVTYINEKRDFQTYRLSLLEEYGCCKELASRLRYARTMVDKLLSSRSASNRLKAS
B2: Wdr6 (protein, UniProt Q99ME2 1-1125, looked up)
tRNA …: MDAFGDYVWPRATSELILLPVTGLECVGDRLLAGEGPDLLVYNLDLGGHLRMVKRVQNLLGHFLIHGFRVRPEPKGDLDSEAMIAVFGSKGLKVVKVSWGQSHLRELWRSGLWNMSDWIWDVRWIEGNVAVALGHNSVVLYDPVIGCMLQDVPCTDRCTLSSACLVGDTWKELTIVAGAVSNELLIWYPATALTDNKPVAPDRRVSGHVGVIFSMSYLESKGLLATASEDRSVRLWKVGDLRVPGGRVQNIGHCFGHSARVWQVKLLENYLISAGEDCVCLVWSHEGEILQAFRGHRGRGIRAIATHERQAWVVTGGDDSGIRLWHLAGRGYPGLGVSSLSFKSPSRPGALKAVTLAGSWRVLAVTDVGSLYLYDLEVKSWEQLLEDNRFRSYCLLEAAPGPEGFGLCALANGEGLVKVVPINTPTAAVEQKLFQGKVHSLSWALRGYEELLLLASGPGGVIACLEISAAPTGKAIFVKERCRYLLPPSKQRWHTCSAFLPPGDFLVCGDRRGSVMLFPVRPCLFKKPGAGSKAITAAEAPGAGSGSGGSESVPTGIGPVSTLHSLHGKQGVTSVTCHGGYLYSTGRDSSYFQLFVHGGHLQPVLRQKACRGMNWVAGLRMVPDGSMVILGFHANEFVVWSPRSHEKLHIVNCGGGHRSWAFSDTEAAMAFTYLKDGEVMLYRALGGCIRPNVILREGLHGREITCVKRVGTVTLGPEFEVPNLEHPDSLEPGSEGPGLIDIVITGSEDTTVCVLALPTTTGSAHALTSVCNHISSVRALAVWAVGTPGGPQDTRPGLTAQVVSAGGRAEIHCFSVMVTPDASTPSRLACHVMHLSSHRLDEYWDRQRNKHKMIKVDPETRYMSLAICELDNDRPGLGPGPLVAAACSDGAVRLFLLQDSGRILHLLAESFHHKRCVLKVHSFTHEAPNQRRRLILCSAATDGSLAFWDLTTAMDKGSTTLELPAHPGLPYQMGTPSMTVQAHSCGVNSLHTLPTPEGHHLVASGSEDGSLHVFTLAVKMPEPEEADGEAELVPQLCVLEEYSVPCAHAAHVTGVKILSPKLMVSASIDQRLTFWRLGQGEPTFMNSTVYHVPDVADMDCWPVSPEFGHRCALAGQGLEVYNWYD
B3: Sf3b1 (protein, UniProt Q99NB9 1-1304, looked up)
Splicing factor 3B subunit 1: MAKIAKTHEDIEAQIREIQGKKAALDEAQGVGLDSTGYYDQEIYGGSDSRFAGYVTSIAATELEDDDDDYSSSTSLLGQKKPGYHAPVALLNDIPQSTEQYDPFAEHRPPKIADREDEYKKHRRTMIISPERLDPFADGGKTPDPKMNARTYMDVMREQHLTKEEREIRQQLAEKAKAGELKVVNGAAASQPPSKRKRRWDQTADQTPGATPKKLSSWDQAETPGHTPSLRWDETPGRAKGSETPGATPGSKIWDPTPSHTPAGAATPGRGDTPGHATPGHGGATSSARKNRWDETPKTERDTPGHGSGWAETPRTDRGGDSIGETPTPGASKRKSRWDETPASQMGGSTPVLTPGKTPIGTPAMNMATPTPGHIMSMTPEQLQAWRWEREIDERNRPLSDEELDAMFPEGYKVLPPPAGYVPIRTPARKLTATPTPLGGMTGFHMQTEDRTMKSVNDQPSGNLPFLKPDDIQYFDKLLVDVDESTLSPEEQKERKIMKLLLKIKNGTPPMRKAALRQITDKAREFGAGPLFNQILPLLMSPTLEDQERHLLVKVIDRILYKLDDLVRPYVHKILVVIEPLLIDEDYYARVEGREIISNLAKAAGLATMISTMRPDIDNMDEYVRNTTARAFAVVASALGIPSLLPFLKAVCKSKKSWQARHTGIKIVQQIAILMGCAILPHLRSLVEIIEHGLVDEQQKVRTISALAIAALAEAATPYGIESFDSVLKPLWKGIRQHRGKGLAAFLKAIGYLIPLMDAEYANYYTREVMLILIREFQSPDEEMKKIVLKVVKQCCGTDGVEANYIKTEILPPFFKHFWQHRMALDRRNYRQLVDTTVELANKVGAAEIISRIVDDLKDEAEQYRKMVMETIEKIMGNLGAADIDHKLEEQLIDGILYAFQEQTTEDSVMLNGFGTVVNALGKRVKPYLPQICGTVLWRLNNKSAKVRQQAADLISRTAVVMKTCQEEKLMGHLGVVLYEYLGEEYPEVLGSILGALKAIVNVIGMHKMTPPIKDLLPRLTPILKNRHEKVQENCIDLVGRIADRGAEYVSAREWMRICFELLELLKAHKKAIRRATVNTFGYIAKAIGPHDVLATLLNNLKVQERQNRVCTTVAIAIVAETCSPFTVLPALMNEYRVPELNVQNGVLKSLSFLFEYIGEMGKDYIYAVTPLLEDALMDRDLVHRQTASAVVQHMSLGVYGFGCEDSLNHLLNYVWPNVFETSPHVIQAVMGALEGLRVAIGPCRMLQYCLQGLFHPARKVRDVYWKIYNSIYIGSQDALIAHYPRIYNDDKNTYIRYDLDYIL
B4: Prpf4b (protein, UniProt Q61136 2-1007, looked up)
Serine/threonine-protein …: AATEPPSLREQAEMDDADNSEKSVNEENGEVSEDQSQNKHSRHKKKKHKHRSKHKKHKHSSEEDRDKKHKHKHKHKKHKRKEVIEASDKEGLSPAKRTKLDDLALLEDLEKQRALIKAELDNELMEGKVQSGMGLILQGYESGSEEEGEIHEKARNGNRSSTRSSSTRGKLEITDNKNSAKKRSKSRSKERTRHRSDKRKSKGAGEMLREKANRSKSKERRKSKSPSKRSKSQDQARKSKSPPLRRRSQEKVGKARSPAEEKMKSEEKGKIKDRKKSPIVNERSRDRSKKSKSPVDLRDKSKDRRSRSKERKSKRSEIDKEKKPIKSPSKDASSGKENRSPSRRPGRSPKRRSLSPKLRDKSRRSRSPLLNDRRSKQSKSPSRTLSPGRRAKSRSLERKRREPERRRLSSPRTRPRDDILGRCERSKDASPINRWSPTRRRSRSPIRRRSRSPLRRSRSPRRRSRSPRRRDRSRRSRSRLRRRSRSRGGHRRRSRSKVKEDKFKGSLSEGMKVEQESSSDDNLEDFDVEEEDEEALIEQRRIQRQAIVQKYKYLAEDSNISVPSEPSSPQSSTRSRSPSPDDILERVAADVKEYERENVDTFEASVKAKHNLMTVEQNNGSSQKKILAPDMFTESDDMFAAYFDSARLRAAGIGKDFKENPNLRDNWTDAEGYYRVNIGEVLDKRYNVYGYTGQGVFSNVVRARDNARANQEVAVKIIRNNELMQKTGLKELEFLKKLNDADPDDKFHCLRLFRHFYHKQHLCLVFEPLSMNLREVLKKYGKDVGLHIKAVRSYSQQLFLALKLLKRCNILHADIKPDNILVNESKTILKLCDFGSASHVADNDITPYLVSRFYRAPEIIIGKSYDYGIDMWSVGCTLYELYTGKILFPGKTNNHMLKLAMDLKGKMPNKMIRKGVFKDQHFDQNLNFMYIEVDKVTEREKVTVMSTINPTKDLLADLIGCQRLPEDQRKKVHQLKDLLDQILMLDPAKRISINQALQHAFIQEKI
B5: Rnps1 (protein, UniProt Q99M28 1-305, looked up)
RNA-binding protein with …: MDLSGVKKKSLLGVKENNKKSSTRAPSPTKRKDRSDEKSKDRSKDKGATKESSEKDRGRDKTRKRRSASSGSSSTRSRSSSTSSSGSSTSTGSSSGSSSSSASSRSGSSSTSRSSSSSSSSGSPSPSRRRHDNRRRSRSKSKPPKRDEKERKRRSPSPKPTKVHIGRLTRNVTKDHIMEIFSTYGKIKMIDMPVERMHPHLSKGYAYVEFENPDEAEKALKHMDGGQIDGQEITATAVLAPWPRPPPRRFSPPRRMLPPPPMWRRSPPRMRRRSRSPRRRSPVRRRSRSPGRRRHRSRSSSNSSR

biological target: T1, nSR100; assay: AP-MS nSR100 interaction partners from mouse N2A cells (Table 5); format: binding; conditions: bait Srrm4
Text: By applying affinity purification coupled to mass-spectrometry (AP-MS), several interaction nSR100 partner proteins were detected that provide insight into mechanisms of post-translational regulation of nSR100 levels.

AvgP (average of the SAINT scores)	MaxP (maximal SAINT score)	Molecule
1	1	B1
1	1	B2
1	1	B3
1	1	B4
1	1	B5

same assay, conditions: bait Srrm4, 0.1 added to prevent division by 0

FoldChange between the prey Avg spectra of the bait and control purifications	Molecule
430	B1
160	B2
3.45	B3
45	B4
17	B5

same assay, conditions: bait Srrm4, 2 replicates

AvgSpec (average number of spectra per replicate)	Molecule
43	B1
16	B2
112	B3
4.5	B4
25.5	B5

same assay, conditions: bait Srrm4, biological replicate 1 (first number of the cell), AP-MS

Spectra (number of spectra for the prey in the purification of the bait)	Molecule
43|43	B1
13	B2
92	B3
4	B4
26	B5

same assay, conditions: bait Srrm4, biological replicate 2 (second number of the cell), AP-MS

Spectra (number of spectra for the prey in the purification of the bait)	Molecule
43|43	B1
19	B2
132	B3
5	B4
25	B5

same assay, conditions: bait Srrm4, sum of spectra over 2 replicates

SpecSum	Molecule
86	B1
32	B2
224	B3
9	B4
51	B5
